Reference: paper PMC4652764, “The La-related protein 1-specific domain repurposes HEAT-like repeats to directly bind a 5′TOP sequence”

How the values were obtained:
[1] = target: T1, LARP1 DM15 region (human, UniProt Q6PKG0 873-1023); experiment: EMSA; EMSA: 20 mM Tris-HCl pH 8, 150 mM NaCl, 10% glycerol, 1 mM DTT, 0.5 ug tRNA, 1 ug BSA, <2 nM RNA, 30 min on ice, native 0.5x TBE gel at 4 C; conditions: protein: recombinant; tags: His6-MBP removed by TEV; glycine linker remnant; label: 5'-32P
[2] = target: T1, LARP1 DM15 region; experiment: EMSA; no specific binding; EMSA: 20 mM Tris-HCl pH 8, 150 mM NaCl, 10% glycerol, 1 mM DTT, 0.5 ug tRNA, 1 ug BSA, <2 nM RNA, 30 min on ice, native 0.5x TBE gel at 4 C; conditions: protein: recombinant; tags: His6-MBP removed by TEV; glycine linker remnant; label: 5'-32P
[3] = target: T1, LARP1 DM15 region; experiment: EMSA; up to 30 uM protein; EMSA: 20 mM Tris-HCl pH 8, 150 mM NaCl, 10% glycerol, 1 mM DTT, 0.5 ug tRNA, 1 ug BSA, <2 nM RNA, 30 min on ice, native 0.5x TBE gel at 4 C; conditions: protein: recombinant; tags: His6-MBP removed by TEV; glycine linker remnant; label: 5'-32P
[4] = target: T1, LARP1 DM15 region; experiment: EMSA; tRNA and BSA competitors; ~500 nM when corrected for active protein; EMSA: 20 mM Tris-HCl pH 8, 150 mM NaCl, 10% glycerol, 1 mM DTT, 0.5 ug tRNA, 1 ug BSA, <2 nM RNA, 30 min on ice, native 0.5x TBE gel at 4 C; conditions: protein: recombinant; tags: His6-MBP removed by TEV; glycine linker remnant; label: 5'-32P (EMSA, probing)
[5] = target: T1, LARP1 DM15 region; experiment: EMSA; two concentration-dependent complexes; EMSA: 20 mM Tris-HCl pH 8, 150 mM NaCl, 10% glycerol, 1 mM DTT, 0.5 ug tRNA, 1 ug BSA, <2 nM RNA, 30 min on ice, native 0.5x TBE gel at 4 C; conditions: protein: recombinant; tags: His6-MBP removed by TEV; glycine linker remnant; label: 5'-32P

Does CACUUCUGCCGCCCCU (ssRNA) [RPL13A 5'TOP 16mer] bind [1]?
Result: no binding

Does CCUCUUUU (ssRNA) [RPS6 first 8 nt] bind [1]?
Result: no binding

Does AAAAAAAAAAAAAAAA (ssRNA) [A16] bind [2]?
Result: no binding

Does GUGGCGCCUCGGAGGCGUUCAGCUGCUUCAAG (ssRNA) [RPS6 deltaTOP] bind [3]?
Result: no binding

CCUCUUUUCCGUGGCGCCUC (ssRNA) [RPS6-20mer] was tested. Which Kd [4] did it give?
The Kd was 776 ± 26 nM.

Does CCUCUUUUCCGUGGCGCCUCGGAGGCGUUCAGCUGCUUCAAG (ssRNA) [RPS6-42mer] bind [5]?
Result: binds

Does UUUUUUUUUUUUUUUU (ssRNA) [U16] bind [2]?
Result: no binding

Does CCCCUUCUCCCCGGCGGUUA (ssRNA) [PABPC1 5'TOP 20mer] bind [1]?
Result: no binding

Does CCUCUUUUCCG (ssRNA) [RPS6 first 11 nt] bind [1]?
Result: no binding
